# Test results as given in publication PMC12581942, “EIN3-binding F-box protein SlEBF3 modulates resistance against Botrytis cinerea and carotenoid biosynthesis by degradation of BBX20 in tomato”.
# B1: SlPSY1 promoter probe (dsDNA)
# DNA 1: GAATTGAGCACTTGGCTTTTGTATATAGCTTCTATGTGTACCAAAATT
# DNA 2: AATTTTGGTACACATAGAAGCTATATACAAAAGCCAAGTGCTCAATTC
# Molecular target: SlTAGL1-His (Solanum lycopersicum, UniProt E9JUM2 1-269)
# Experiment: EMSA; not given; Beyotime EMSA/Gel-Shift kit and Thermo LightShift Chemiluminescent EMSA kit
# Conditions: protein: recombinant; tags: His (pET28a); chain copies: 2; label: biotin 3'; blunt
# Sequence of SlTAGL1-His (E9JUM2 entry or part of it): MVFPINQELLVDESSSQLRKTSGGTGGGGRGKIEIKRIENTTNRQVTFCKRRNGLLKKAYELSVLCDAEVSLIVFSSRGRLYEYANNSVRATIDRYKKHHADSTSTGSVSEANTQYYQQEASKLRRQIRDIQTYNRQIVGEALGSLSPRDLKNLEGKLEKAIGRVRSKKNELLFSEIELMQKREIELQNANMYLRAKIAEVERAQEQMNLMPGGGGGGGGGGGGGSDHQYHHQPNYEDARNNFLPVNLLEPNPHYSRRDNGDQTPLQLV
binder,measurement,value
B1,binding result,binds
